Data taken from article PMC2922993 (Nature chemical biology, 2010).
Non-standard residues stand in square brackets, D forms with d. No end group written: not given here. Lys(Me3) = C[N+](C)(C)CCCC[C@H](N)C(=O)O; Arg(Me2s) = CN=C(NC)NCCC[C@H](N)C(=O)O

Legend:
[1] = biological target: BRAF-HDAC Complex 80 (BHC80)-PHD finger (UniProt Q96BD5 486-543); test: ITC
[2] = biological target: T1, inhibitor of growth 2 (ING2) PHD finger; test: ITC
T1 sequence (Q9H160 whole entry, species assumed, looked up): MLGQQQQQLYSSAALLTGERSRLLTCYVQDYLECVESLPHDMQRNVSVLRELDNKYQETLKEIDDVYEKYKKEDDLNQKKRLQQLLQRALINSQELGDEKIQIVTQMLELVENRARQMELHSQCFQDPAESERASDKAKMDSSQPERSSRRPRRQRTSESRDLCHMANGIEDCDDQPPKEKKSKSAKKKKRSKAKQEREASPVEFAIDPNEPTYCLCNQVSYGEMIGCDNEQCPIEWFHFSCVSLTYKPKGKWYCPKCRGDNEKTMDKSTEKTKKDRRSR

Chain of BRAF-HDAC Complex 80 (BHC80)-PHD finger (Q96BD5 486-543, one chain of several): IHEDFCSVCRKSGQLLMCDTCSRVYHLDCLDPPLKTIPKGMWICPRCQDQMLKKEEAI

B1: H3R2me2s- modified peptide (peptide)
chain: A[Arg(Me2s)]TKQTARKSTG
Work on B1 yielded a Kd [1] of 57.2 µM.

B2: H3 peptide bearing K4me3 and R2me2s marks (peptide)
chain: A[Arg(Me2s)]T[Lys(Me3)]QTARKSTG
With B2 the Kd [2] was 17.3 µM.

B3: H3K4me3 peptide (ITC) (peptide)
chain: ART[Lys(Me3)]QTARKSTG
Binder B3 has a Kd [2] of 0.98 µM.
